Data as given in the nanobody polyreactivity screen of Harvey et al. (2022).

Assay: yeast display, Sf9 membrane polyspecificity reagent, FACS + sequencing; frameworks hold sequencing errors
Procedure, shortened: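 A synthetic nanobody library was expressed on Saccharomyces cerevisiae BJ5465 by galactose induction for 36–48 hours. The library was stained for 1 hour at 4 °C with 10% biotinylated, detergent-solubilized Sf9 membrane reagent and enriched with streptavidin microbeads before FACS. Low and high (top ~1%) gates were set on anti-HA fluorescence for expression and streptavidin fluorescence for reagent binding, and each polyreactivity label reflects the gate of origin.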

Sequence | polyreactivity (PSR sort gate)
QVQLVESGGGLVQAGGSLRLSCAASGRTFHRYAMGWYRQAPGKERELVAAITSSGGSTNYADSVKGRFTISRDYAKNTVYLQMNSLKPEDTAVYYCATDRYRYTSHPWSRGFDYWGHGTQVTVSS | low polyreactivity
QVQHDQSGGGLVQAGGSLRLSCAASGRTFKPYVMGRYREAPGKERELVAAISSRGDITYYADSVKGRFTITRDNAKNTVYLQMNSLKPEDTAVYYCNAGPAVRSAYSTPYYDYWGQGTQVTVSS | low polyreactivity
QVQLVESGGCLVQAGGRLRLSCAASGFTFGYYAMGWYIQAPGKERELVAAIDWSGGTTYYADSVKGRFTISRDNAKNTVYLQMNSLKPEDTAVYYCAADVVEEDDLEFYYWGQGTQVTVSS | high polyreactivity
QVQLLESGGGIVQAGGSLRLSCGASGSTFTLNAMGWYRQAPGTEREFVADISWSSGRTYYADSVKGRFTISRDNAKNTVYVQMNSLKQEDTAVYYCATDDFWNVKFYAYYPEFDYWGQGTQVNVSS | low polyreactivity
QVQLLESGGGLVQAGGSLRLSCAASGGIFPAYAMGWYRQAPGKERELFADITNGGSTYYADSVKGRFTISRDNAKNTVYLQMNSLKPEDTAVYYCNAREFWRTRFGCGYPYRRNMDYWGQGTQVTVSS | low polyreactivity
QVQLVESGGGLVQAGGSLRLSCAASGRIFYINAMGWYRQAPGKERELVAAISWSGSSTYYADSVKGRFTISRDNAKNTIYLQMNSLKPEDTAVYYCATVYYDNHYSAGYDYRGQGTQVTVSS | high polyreactivity
QVQLVESGGGLVQAGGSLRLSCAASGRTFDSYAMGWYRQAPGKERELVAAIYADSVKGRFTISRDNAKNTVYLQMNSLKPEDTAVYYCAAETYSGQTYLGEYDYWGQGTQVTVSS | low polyreactivity
QGQLVESAGGLVQAGGSLRLSCGASGRSFYSYTMGWYRQAPVKERELVAAITRADRTHYADSVKGRFTISRDYATKHVDCERNSQKPEDTAVYYAATRQVYSVRYYYRGQGTQVTVSS | high polyreactivity
QVQLVESGGGLVQAGGSLRLSCAASGSTFTVNTMGWYRQAPGKERELVAAISFGGGPTYYADSVKGRFTISRDNAKNTVYLQMNSLKPEDTAVYSCAARGSLWNARKYYYWGQGTQVTVSS | high polyreactivity
QVQLEESGGGLVQAGGSLRVSCAASGSILIPNAMGWYRQAPGKERELVASISKSGGSTYYADSVKGRFTISRDTAKNTVYLQMNSLKPEDTAVYYCAAAFVSVRKRYGYWGQGTQVTVSS | high polyreactivity
QVQLVESGVGLVQAGGSLRLICAASGRIFANYAMGWYRQAPGKERELVAAITGSGGTTYYADSVKGRFTISRDNAKNSVYLEMNSLKPEDTAVYYCATPPPVVWQRWYREYDYWGQGTQVTVSS | low polyreactivity
QVQLVESGGGLVQAGGSLRLSCAASGITFYSYAMGWYRQAPGKEMELVAAITRSGGSTYYADSVKGRFTISRDNAKNTVYLQMISLKPEDTAVYYCAAEEGRVFSGGYEYWGQGTQVTVSS | high polyreactivity
QVQLVEAGGGLVKAGGSLRLSCAASGYIFRFYALGWYRQAPGKERELVAAISRSGSRTYYADSVKGRFTISRDNAKNTVYLQMNSLKPEDTAVYYCAAVTRGLRFDYWGQGTQVTVSS | high polyreactivity
QVQLGESGGGLVQAGGRLRLRCAASGIIFTKYAMGLYRQAPGKERELVAAITASGGSTYYADSVKGRFTISRDTAKNTVYLQMNSLKPEDTAVYYCAARSPSRYGYWGQGTQVTVSS | high polyreactivity
QVQLVESGGGLVQAGGSLRLSCAASGFIFGGYAMGWYRPAPGKERELVAAISSSGGSTYYADSVKGRFTISRDNAKNTVYLQMNSLKPEDTAVYYCAARIQSVSSGRWFDYWGQGTQVTVSS | high polyreactivity
QVQLVESGGGLVQAGGSLRLSCAASGRIYWWYAMGGSRQEPGKERELVAGISWSGGSTYYADSVKGRFTISRDNAKNTVYLQMNSLKPEDSAVYYCNAQYASGRSYFFYWHRFDYGGQGTQVTVSS | high polyreactivity
QVQLVESGGGLVQAGGSLRLSCAASGRIFYAYTMGWYRQAPGKERELVAAISGSGSTYYADSVKGRFTISRDNAKNTVYLQMNSLKPEDTAVYYCAADVTGGRKYDYWGQGTQVTVSS | low polyreactivity
QVQLVESGGGLVQAGGSLRLSCAASGRIFTSNAMGWYRLAPGKERELVAAISSSSGSTYYADSVKGRFTISRDNAKNTVYLQMNSLKPEDTAVYYCAARTWRVSGTYKYDYWGQGTQVTVSS | low polyreactivity
QVQLVESGGGLVQAGGSLRLSCAASGRTFSRYAMGWYRQAPGKERELVAAISSSGGSTYYADSVKGRFTISRDNAKNTVYLQMNSLKPEDTAVYYCAKYFIRDNRYDYWGQGTQVTVSS | high polyreactivity
QVQLQESGSGLVQAGGSLRLSSAASGNISHYNDMGWYRQAPGKEREPVATINSGSITYYADSVKGRFTISRDNAKNTVYLQMNSLKPEDTAVYYCAVTQHGYFYLDYWGQGTQVTVSS | high polyreactivity
QVQLVESGGGLVQARGSLRLSCAASGSTFVQNAMGWYRQAPGKEREFVAAIRVSGDNTYYADSVKGRFTISLDNAKNTVYLQMNSLKPEDTAVYYFAATGTFVGSVDYWGQGTQVTVSS | low polyreactivity
QVQLVESGGGLVQAGGSLRLSCAASGSIFEGYAMGWYRQAPGKERELVAAISRSGGSTYYADSVKGRFPISRDNAKNTVYLQMNSLKPEDTAVYYCAARKAIDYQGRHDHWGQGTQVTVSS | low polyreactivity

Sequence | polyreactivity (PSR sort gate)
QVQRVESGGGLVQAGGRLRLSCAASGSISVAKAMGWYRQAPGKERELVAAITDSGDDTYYADSVKGRFTISRDNAKNTVYLQMNSLKPEDTAVYYCAAGLRLDLGAMYYWGQGTQVTVSS | low polyreactivity
QVQLVESGGGLVQAGGSLRLSCAASGIIFKDYAMGWYRQAPGKERELVAAISRGGSTYYADSVKGRFTISRDNAKNTVYLQMNSLKPEDTAVYYCAAAYTAPYYRFGYWGQGTQVTVSS | high polyreactivity
QVQLVESGGGLVQAGGSLRLRCAPSGSIFSAYAMGWYRQAPGKVREVVAGISKSGARTYYADSVKGRFTLSRDNAKNTVYLQMNRLKPEDTAVYYCAAVDYYLYYYWGQGTQVTVSS | high polyreactivity
QVQLVESGGGLVQEGGSLRLSCAASGSLFDVYAMGWYRQAPGKERELVAAISSSGSTYYADSVKGRFTISRDNAKNTVYLQMNSLKPEDTAVYYCAADQADDDDYYYWGQGTQVTVSS | low polyreactivity
QVQLVESGGGLVQAGGSLRLSCAASGFIFANYVMGWYRQAPGKERELVAAITYSGNTYYADSVKGRFTISRDNAKNTVYLQMNSLKPVDTAVYYCNADYVEGGLPGYDFDYWGQGTQVTVSS | low polyreactivity
QVQLVESGGGLVQAGGSLRLSCAAYGSTFKPYAMGRYRQAPGKERELVADITGGGSTNYADSVKGRFTISRDNAKNTVYLQMNSLKPEDTAVYYCNADPVRSTYSYDYWGQGTQVTVSS | low polyreactivity
QVQLVESGGGLVQAGGSLRLSCAASVNIFESYGMGWYRQAPGKERELVATINTSSGSTYYADSVKGRFTISRDNAKNTVYLQMNSLKPEDTAVYYCSAEWYPYPWGYGYSGQGTQVTVSS | low polyreactivity
QVQLVESGGGLVQAGGSLRLSCAASGITFYKYDMGCYRQATGKERELVAAISFRGGNTNYADSVKGRFTISRDNAKNTVYLQMTSLKPEDTAVYYCAAYSYTWFYEYGYWGLGTQVTVSS | high polyreactivity
QVQLEESGGGLVQAGGSLRLSCAASGRILRGYVMGWYRQAPGKERELVATITGRGGSTYYADSVKGRFTISRDNAKNTVYLQMNSLKPEDTAVYYCNKDGYPYFGRSEYWGQGTQVTVSS | low polyreactivity
QVQLVESGGGLVQAGGSQRLSCAASGRTFRGNAMGWYRQAPGKERELVATINSGGSTNYADSVKGRFTISRDKAKNTVYLQMNSLIPEDTAVYYCAAVKYFRWKYNYWGQGTQVTVSS | high polyreactivity
QVQLVESGGGLVQAGGSLRLSCAASGSTFTKNAMGWYRPAPGKERELVAVISSGGSTNYADSVKGRFTISRDNAKNTVDLQMNSLKPEDTAVYYCAAEHYILYDYLWAYDYWGQGTQVTVSS | high polyreactivity
QVQLVESGGCLVQAGGSLRLSCAASGLTFRYYAMGWYRQAPGKERELVAAITASVGSTYYADSVKGRFTISRDNAKNTVYLQMNSLKPEDTAVYYCAADSEQDNLRYYRWVWYDYWGQGTQVTVSS | low polyreactivity
QVQLVESGGGLVQAGGSLRLSCAASGRTLGTYAMGWYRQAPGKERELVAAITSGGSTYYADSVKGRFTISRDNAKNTVYLQMNSLKPEDTAVYYRATYSYYYWGQGTQVTVSS | low polyreactivity
QVQLVESGGGLDQSGGSLSLSCAASGSNFRLNAMGWSRQAPGKETELVAAISYRGGSTNYADSVKGRFTISRDNAKNTVYLQMNILKPEDTAVYYCAANIYRSSGQCMDYWGQGTEVTVSS | low polyreactivity
QVQLVESGGGLVQAGGSLRLTCAASGFISSENAMGWYRQAPGKERELVAAISSGGCTNYADSVKGRFTISRDNAKNTVYLQMNSLKEEDTAVYYCAATLPGWYNEDDSWGQGTHVTVSS | low polyreactivity
QVQLVESGGGLVQAGGSLRLSCAASGRTFKWYAMGWYRQAPGKERELVAAITTGGNTYYADSVKGRFTISRDNAKNTVYLQMNSLTPEDTAVYYCARVPTQGYNPYEYWGQGTQVTVSS | low polyreactivity
QVQLVESGGRLVQAGGSLRLSCAASGITQGYYAMGWYRQAPGKERELVAAISYRGGNTYYADSVKGRFTISRDNAKNTVYLQMNSLKPEDTAVYYCNADLGYESGWWSKYDYWGQGTQVTVSS | low polyreactivity
QFQLVESAGGLFQAVGSHRLSCAASGRTFTQYAMGWYRQAPGKERELVAAISWRGGSTYYADSVKGRFTISRDNAKNTVYLQMNSLKPEDTAVYYCAKRYFRGYPLYDYWGQGTQVTVSS | high polyreactivity
QVQLVESGGGLVQAGGSLRLSCAASGSIIGIYDMGWYRQAPGKERELVAAISWSGGSTYYADSVKGRFTISRDNAKNTVYLQMNSLKPEDTAFYYCAARGHYQYYWGQGTQVTVSS | low polyreactivity
QVQLVESGGGLVQAGGSLRLSCAASGSTFSTYAMGWYRQAPGKERELVAAITSSGGSTYYADSVKGRFTISRDNAKNTVYLQMNSLKPEDTAVYYCAAGRGYWWWYGYDYWGQGTQVTVSS | low polyreactivity
QVQLVESGGGLVQAGGSLRLSCAASGSIFSFYAMGWSRQAPGKERELVASISYSGGTTFYADSVKGRFTISRDNAKNTVYLQMNSLKTEDTAVYYSAATCEPPQRGYVKDEFDYWGQVTQVTVSS | low polyreactivity
